Tested on: MS2 coat protein
Test: apparent KD of MS2 coat protein; higher = weaker reporter binding
Conditions: Eterna round: R107; input ligand: theophylline 20 uM
Outline: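 Titration buffer: 100 mM Tris-HCl pH 7.5, 80 mM KCl, 4 mM MgCl2, without or with constant ligand. Designed RNA switches transcribed on-chip from Illumina sequencing clusters received SNAP-549-labelled MS2 coat protein in twofold steps from 0.7 or 1.5 nM to 3 µM. Apparent KD is the median per design of fits to normalised cluster binding curves.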

| Sequence | apparent KD of MS2 coat protein [nM] |
| --- | --- |
| CCAUGGCUAGGAAGGAGCGCAUACUUCACAUGAGGAUCACCCAUGUCGAGACGUGAGUCAGUGCAGGUAGGUCGCCUAGCCAUGG [Same State - Arginine B (Freestyle 30)] | 29.2 |
| UUUGAUAGGACAGAUACCAGCGUGUUGUUGAACAUGAGGAUCACCCAUGUAGUGAUCAAGCGCCCUUGGCAGCUGGUUUGUUAGG [7.M] | 240 |
| CUGUGUCCUUCGGCCGCCACUACAUGAGGAUCACCCAUGUCGUUACGGCUCCCAAUGACGCUUUGUAGGACCGGGAAGGAGUAUG [Tienancebe] | 15.9 |
| GUGAGGUUUGAUGAUACCAGAUGUGGUGGGAACAUGAGGAUCACCCAUGUUGUGAAACAGGUCCCUUGGCAGCAUGAGAGAGCUU [TheoB-ms2@32] | 89.3 |
| CAGAACAUGAGGAUCACCCAUGUCAGGGAUACCAGCUCAGACAUGGGCCCUUGGCAGCUCUGUGGCUGACGAAAGUCAGCAUCUG [#17 SameState-TheophyllineA] | 109 |
| GGCUACAUGAGGAUCACCCAUGUUUCUCGUCGAGGACCGGUACGGCCGCCACUCGUUGUUGGGACUCAGUAUCAGUCGUUAGUUU [theeternabot_sameState_MS2_Trp_A_36] | 34.3 |
| AGAAUAACACAUGAGGAUCACCCAUGUGAUACCAGCUAGGAAACUAGCCCUUGGCAGCACAUAAUCCUCAUGAAUGUGCUGAAUA [(M1)-(M2)-(T1)-(T2)-(M)'-(T)'_Design3_2/19/17] | 121 |
| GUCGCUGAGGGAAGGAGCGUGAAGACAUGAGGAUCACCCAUGUAGAGGCGCCGAAGGCGUUCGCAGGUAGGUCGCCCUCAGUGAA [#1 Same State - Arginine B Attempt #25 (HarryS)] | 22.1 |
| UAGCGAUAAUCUGAUACCAGACGUGUGCUCUCCUCAGACAUGAGGAUCACCCAUGUAUGCGUCCCUUGGCAGCAGAGUGAGGAGA [Theo B Ex t5] | 26.8 |
| ACACAAUACAUGAGGAUCACCCAUGUAAAACGAGGACCGGUACGGCCGCCACUCGAAUACAGGAAACCUCGGAAUAUUAAGUGAA [JR_ExcTryptA_Sub001] | 64.1 |
| UGUUUGGUGCGCGAGUGUUGGAUAAAUGAUACCAGUGUAGAUGUACGCCCUUGGCAGCGUAUCCGAACAUGAGGAUCACCCAUGU [5.aB] | 44.9 |
| GUAUACAUGAGGAUCACCCAUGUACCAGAAGGAGCGCUGGAAACAGCAGGUAGGUCGCUGGUAGGUCCUCUAUCUAGACGUUCUA [EAA NP+V+V2 #5] | 214 |
| UGGGAAGGAGGAAGGAGCGCCAUAAGGGUGACAGUCUGGGUACAUGAGGAUCACCCAUGUAGGCAGGUAGGUCGCCUAGCUCUCA [XArg-B16] | 12.9 |
| UGACAUUGCUGCGAUACCAGACAUGAGGAUCACCCAUGUACCAAGGUAAGAAAAUAACAUGUCCCUUGGCAGCGCAGCAAUGUCU [MAT - Exclusion Theophlline B - Mod of Eli - D1] | 40.2 |
| ACAUGAGGAUCCGAUACCAGCCACAUGAGGAUCACCCAUGUAGUACAUGAGGAUCACCCAGGCCCUUGGCAGCGGACAUGAGGAU [Exclusion - Theophylline B] | 331 |
| ACAAGAGGGAUGGAUACCAGCGACAUGAGGAUCACCCAUGUAUGAGGAUCAGCCAUGUUAUGCCCUUGGCAGCCACGAACAUCAG [SSAMULLIN] | 30.8 |
| UUAAUCAUUAUAGAAAACUAUAAUGCAGAAGGAGCGUGAUAAAACACAGGUAGGUCGCUGAAGGGAACAUGAGGAUCACCCAUGU [AstrosSSArgA#6] | 37.8 |
| CUCCUGUGAGCGGCCGCCACUGGAGGCCUCGCGCGACAUGAGGAUCACCCAUGUUGGCCCGGCCUCAGGACCGGGUUCGCGCGAG [Same State - Tryptophan B Attempt #4 (HarryS)] | 15.4 |
| AAUAGCUUGAGGAUCACCCAAGUAAAAGAUACCAGAGUGAUGAUCCUCCCUUGGCAGCUUAACGCUGAUUGAUUACAAUCAGCGA | 93.9 |

Same assay, conditions: Eterna round: R107; input ligand: theophylline 2 mM

| Sequence | apparent KD of MS2 coat protein [nM] |
| --- | --- |
| ACCUACACGGAGACGUGUAGGAGUAAUGAUACCAGCAUGGAGACAUGCCCUUGGCAGCGUUACAUGAGGAUCACCCAUGUAGGUU [ETHA #4] | 78.8 |
| UGGAGUAGGGUAAAUAGGAUAAGUACAGAAGGAGCGCGAAUAAACGCAGGUAGGUCGCUGGAACACAUGAGGAUCACCCAUGUUG [Same State Arginine A GF 24] | 17.8 |
| AGAAUAACAUGAGCAAAGCUCAUGUGCGAAGGAGCGGCGGAAACGCCAGGUAGGUCGCGCACAUGAGCAUCAGCCAUGUGUACCA [Omei Arginine B SS A v5] | 65.8 |
| ACAUGAGGAUCACCCAUGUGGCGUCUUGAUACCAGACCCGAAGUAGUCCCUUGGCAGCAACUACGUGAGGGUCGCCCAUGUGUAG [k'kmullin] | 40.9 |
| UCAUAAGUACCGGUCCUCAGAUCCUCAUGACGAGGACCGGUACGGCCGCCACUCGAAACAUGAGGAUCACCCAUGUAAUAAUAUU [Brourdmod11] | 27.3 |
| UUGACAUGAGGAUCACCCAUGUAAACUGAAGGAGCGUCGAAAAUGACAGGUAGGUCGCAGAAUAAUAAAGGUGAUGGUAAAUAUU [Exclusion Arginine AGF1] | 29.6 |
| AGCGUGCAUCGGAAAACGAUGUACGCAAAUCGAGGACCGGUACGGCCGCCACUCGUCCUCAACAUGAGGAUCACCCAUGUAAUAA [Mat - Exclusion - Trytophan A - D10] | 24 |
| GAUUACAUGAGGAUCACCCAUGUAACUGAAGGAGCGGUAAUAAAGCCAGGUAGGUCGCGGAACAACAUGUGGAUCACCCAUGUAA [#13 Exclusion - Arginine A] | 43.7 |
| GUACAUGAGGAUCACCCAUGUAUAGUUGAAGGAGCGACCAGAGGGUCAGGUAGGUCGCAGCACAUGAGGUAAGCCCGUGUAUGCU [#1 Exclusion - Arginine A Attempt #19 (Inspired by Pi)] | 35.1 |
| CUUGUUUGUGGAAGGAGCGCGAUUACAUAACAUGAGGAUCACCCAUGUAAGAAAUUAUUCAUGCAGGUAGGUCGCCAUUGGUGGG [Same State Arginine B GF8] | 23.7 |
| CUUGUGGUCGGAAGGAGCGCGAUUACAUAACAUGAGGAUCACCCAUGUAAGAAAUUAUUCAUGCAGGUAGGUCGCCGGUCGUGGG [Same State Arginine B GF10] | 22.6 |
| AGCCGGAUUACGGCCGCCACUGUAGACGUGACGAAAGUCGCGUCAACAUGAGGAUCACCCAUGUACAGGACCGGGUGGUCCGGCG [Omei Trp B SS A v1] | 17.8 |
| GCAUCCUAGUCGGCCGCCACUGCACGAUCAGUGGCAGAUCGUCAACAUGAGGAUCACCCAUGUAGCAGGACCGGGACUAGGAUGC [(Trp1)-(TM)''-(TM)'-(Ms2)-(Trp2)_Design3] | 20.9 |
| AAAAGAGGUGGAAGGAGCGGGAGACAUGAGGAUCACCCAUGUGAUGUUACGAAAGGUUCAGCCCAGGUAGGUCGCCAUGUCGAAA [zczzmullin] | 175 |
| AAAAUAAAGGCGGCCGCCACUAGAGUUAGGCUUAUGUACUGGGUAACAUGAGGAUCACCCAUGUAUAGGACCGGGCCAUAAUAAA [Same State - Tryptophan B (Freestyle 2)] | 73 |
| CCAUGGCUAGGAAGGAGCGCAUACUUCACAUGAGGAUCACCCAUGUCGAGACGUGAGUCAGUGCAGGUAGGUCGCCUAGCCAUGG [Same State - Arginine B (Freestyle 30)] | 24.8 |
| CUGUGUCCUUCGGCCGCCACUACAUGAGGAUCACCCAUGUCGUUACGGCUCCCAAUGACGCUUUGUAGGACCGGGAAGGAGUAUG [Tienancebe] | 10.9 |
| GGCUACAUGAGGAUCACCCAUGUUUCUCGUCGAGGACCGGUACGGCCGCCACUCGUUGUUGGGACUCAGUAUCAGUCGUUAGUUU [theeternabot_sameState_MS2_Trp_A_36] | 40.2 |
| GUCGCUGAGGGAAGGAGCGUGAAGACAUGAGGAUCACCCAUGUAGAGGCGCCGAAGGCGUUCGCAGGUAGGUCGCCCUCAGUGAA [#1 Same State - Arginine B Attempt #25 (HarryS)] | 16.1 |
| UAGCGAUAAUCUGAUACCAGACGUGUGCUCUCCUCAGACAUGAGGAUCACCCAUGUAUGCGUCCCUUGGCAGCAGAGUGAGGAGA [Theo B Ex t5] | 115 |
